Source: patent publication US20100015058A1 (STANFORD UNIVERSITY, published 2010)
Values belong to the binder of their own block, whether it stands above or below them.

Assays:
[1] = molecular target: T1, gastrin-releasing peptide receptor (GRPR) (human, UniProt P30550 1-384); assay: displacement of ^125I-[Tyr^4]BBN from PC-3 cells; determined with FB-PEG3-RGD-BBN
T1 construct: whole, on cells; also called GRP receptor

[2] = molecular target: T1, gastrin-releasing peptide receptor …; assay: displacement of ^125I-[Tyr^4]BBN from 10^5 PC-3 cells
Procedure: (§1) The best-fit 50% inhibitory concentration (IC₅₀) values were calculated by fitting the data with nonlinear regression using Graph-Pad Prism (GraphPad Software, Inc.). Experiments were performed with triplicate samples.

integrin αvβ3 [3] = molecular target: T2, integrin αvβ3 (human, UniProt P06756 31-1048; P05106 27-788); assay: competitive displacement of ^125I-echistatin on U87MG cells
T2 construct: whole, on cells; Endogenous receptor on U87MG human glioblastoma cells in the IC50 assays; also called integrin alpha v beta 3; human integrin αvβ3
Procedure: as §1

[4] = molecular target: T1, gastrin-releasing peptide receptor …; assay: displacement of ^125I-[Tyr^4]BBN from PC-3 cells
integrin αvβ3 [5] = molecular target: T2, integrin αvβ3; assay: competitive binding with ^125I-c(RGDyK) on U87MG cells
Procedure: The best-fit 50% inhibitory concentration (IC₅₀) values were calculated by fitting the data with nonlinear regression using GraphPad Prism (GraphPad Software). Experiments were performed twice with triplicate samples.

[6] = molecular target: T1, gastrin-releasing peptide receptor …; assay: competitive binding with 125I-[Tyr4]BBN on PC-3 cells; determined with NOTA-RGD-BBN
[7] = molecular target: T1, gastrin-releasing peptide receptor …; assay: competitive binding with 125I-[Tyr4]BBN on PC-3 cells
integrin αvβ3 [8] = molecular target: T2, integrin αvβ3; assay: competitive binding with 125I-c(RGDyK) on U87MG cells

T1 sequence (P30550 whole entry): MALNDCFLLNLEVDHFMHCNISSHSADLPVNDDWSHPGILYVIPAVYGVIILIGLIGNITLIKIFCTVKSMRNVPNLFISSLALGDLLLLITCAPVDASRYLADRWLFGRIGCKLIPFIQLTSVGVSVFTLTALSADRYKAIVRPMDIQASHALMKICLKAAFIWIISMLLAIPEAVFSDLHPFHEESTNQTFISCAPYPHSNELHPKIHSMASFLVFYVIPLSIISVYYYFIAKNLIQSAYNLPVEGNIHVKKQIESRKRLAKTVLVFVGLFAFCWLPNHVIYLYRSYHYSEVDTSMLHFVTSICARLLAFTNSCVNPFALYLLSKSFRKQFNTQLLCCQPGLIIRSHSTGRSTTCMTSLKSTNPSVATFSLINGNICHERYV
T2 sequence (P06756 31-1048, chain 1 of 2): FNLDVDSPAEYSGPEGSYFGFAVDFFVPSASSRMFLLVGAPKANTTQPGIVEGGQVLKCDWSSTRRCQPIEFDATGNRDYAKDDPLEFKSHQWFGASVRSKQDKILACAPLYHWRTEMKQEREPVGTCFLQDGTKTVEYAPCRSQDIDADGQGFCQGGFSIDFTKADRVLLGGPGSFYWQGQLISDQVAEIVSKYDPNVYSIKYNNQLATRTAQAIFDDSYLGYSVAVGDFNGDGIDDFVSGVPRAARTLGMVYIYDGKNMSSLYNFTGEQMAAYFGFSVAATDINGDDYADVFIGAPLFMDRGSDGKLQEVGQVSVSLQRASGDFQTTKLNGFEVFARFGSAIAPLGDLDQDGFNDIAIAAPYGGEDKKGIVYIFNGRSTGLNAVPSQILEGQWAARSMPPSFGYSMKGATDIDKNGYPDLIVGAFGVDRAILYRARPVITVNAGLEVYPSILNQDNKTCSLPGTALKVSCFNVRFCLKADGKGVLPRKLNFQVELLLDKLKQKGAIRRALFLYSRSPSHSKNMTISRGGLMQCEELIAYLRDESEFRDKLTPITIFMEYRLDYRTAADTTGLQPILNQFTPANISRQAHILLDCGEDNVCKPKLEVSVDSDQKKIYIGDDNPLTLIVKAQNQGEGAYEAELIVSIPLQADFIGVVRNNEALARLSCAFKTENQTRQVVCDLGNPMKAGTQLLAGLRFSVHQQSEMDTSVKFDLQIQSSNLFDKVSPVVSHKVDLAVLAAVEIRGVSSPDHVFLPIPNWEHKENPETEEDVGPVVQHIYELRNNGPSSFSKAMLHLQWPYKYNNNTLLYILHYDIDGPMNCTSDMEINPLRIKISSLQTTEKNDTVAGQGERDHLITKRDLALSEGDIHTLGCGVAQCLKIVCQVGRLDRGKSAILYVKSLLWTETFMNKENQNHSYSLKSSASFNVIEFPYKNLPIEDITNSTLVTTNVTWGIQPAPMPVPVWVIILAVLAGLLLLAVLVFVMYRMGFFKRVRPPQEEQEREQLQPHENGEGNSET
T2 sequence (P05106 27-788, chain 2 of 2): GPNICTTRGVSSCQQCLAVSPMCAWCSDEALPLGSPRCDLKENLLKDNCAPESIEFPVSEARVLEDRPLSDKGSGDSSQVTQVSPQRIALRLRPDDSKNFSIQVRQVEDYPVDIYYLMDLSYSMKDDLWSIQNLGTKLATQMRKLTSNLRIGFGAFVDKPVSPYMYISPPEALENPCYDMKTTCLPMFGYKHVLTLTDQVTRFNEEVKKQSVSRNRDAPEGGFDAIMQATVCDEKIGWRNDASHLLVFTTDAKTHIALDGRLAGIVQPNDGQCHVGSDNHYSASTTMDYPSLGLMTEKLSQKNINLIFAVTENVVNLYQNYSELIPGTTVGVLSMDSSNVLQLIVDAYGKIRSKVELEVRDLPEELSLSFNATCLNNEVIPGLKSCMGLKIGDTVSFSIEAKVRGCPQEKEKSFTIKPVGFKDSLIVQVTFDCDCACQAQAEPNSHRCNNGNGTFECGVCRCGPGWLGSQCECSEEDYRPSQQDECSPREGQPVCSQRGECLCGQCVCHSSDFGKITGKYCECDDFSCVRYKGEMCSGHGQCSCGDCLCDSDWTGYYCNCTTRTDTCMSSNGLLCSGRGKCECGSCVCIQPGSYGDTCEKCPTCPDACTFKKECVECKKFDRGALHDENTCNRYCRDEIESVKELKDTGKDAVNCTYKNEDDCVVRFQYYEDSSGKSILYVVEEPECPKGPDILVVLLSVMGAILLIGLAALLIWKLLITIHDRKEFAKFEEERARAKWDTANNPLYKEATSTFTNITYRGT

- IC50 [1]: 73.3 nM
B1: FB-PEG3-Glu-RGD-BBN (peptide)
peptide 1: RGDYK
peptide 2: EQWAVGHLM
modifications: 4-fluorobenzoyl (FB) on the amino group of the PEG3 spacer (11-amino-3,6,9-trioxaundecanoic acid), PEG3 on the Glu amino group; Glu γ-carboxylate joined to Aca; Aca between Glu and Gln; C-terminal amide (Met-NH2); cyclic (cyclo); D-Tyr at position 4; Lys side chain ε-amine joined to the α-carboxylate of Glu
notes: also called FB-PEG3-RGD-BBN; ^18F-FB-PEG3-Glu-RGD-BBN

- IC50 [2]: 35.7 nM
- IC50 (integrin αvβ3 [3]): 428 nM
B2: NH2-Glu-BBN(7-14)-c(RGDyK) (BBN-RGD) (peptide)
peptide 1: RGDYK
peptide 2: EQWAVGHLM
modifications: free amino group on Glu; Aca between Glu and Gln; C-terminal amide (Met-NH2); cyclic (cyclo); D-Tyr at position 4; Lys joined to one carboxylate of the Glu linker
notes: also called heterodimer BBN-RGD; BBN-RGD heterodimeric construct

- IC50 [4]: 67.9 nM
- IC50 (integrin αvβ3 [5]): 17.9 nM
B3: RGD-BBN, cyclo(Arg-Gly-Asp-D-Tyr-Lys)-Glu-(Aca-Gln-Trp-Ala-Val-Gly-His-Leu-Met-NH2) (peptide)
peptide 1: RGDYK
peptide 2: EQWAVGHLM
modifications: free amino group on Glu; Glu side-chain carboxylate joined to Aca; Aca between Glu and Gln; C-terminal amide (Met-NH2); cyclic (cyclo); D-Tyr at position 4; Lys side chain ε-amine joined to the α-carboxylate of Glu
notes: also called Glu-RGD-BBN; RGD-bombesin

- binding result (integrin αvβ3 [5]): no binding
Binder: Aca-QWAVGHLM-NH2 (also called BBN monomer; cold BBN) [Aca-BBN(7-14), Aca-Gln-Trp-Ala-Val-Gly-His-Leu-Met-NH2]

- IC50 [2]: 32 nM
- IC50 (integrin αvβ3 [3]): 282 nM
B4: FB-NH-Glu-BBN(7-14)-c(RGDyK) (FB-BBN-RGD) (peptide)
peptide 1: RGDYK
peptide 2: EQWAVGHLM
modifications: 4-fluorobenzoyl (FB) on the Glu amino group; Aca between Glu and Gln; C-terminal amide (Met-NH2); cyclic (cyclo); D-Tyr at position 4; Lys joined to one carboxylate of the Glu linker
notes: non-radioactive FB form used in the IC50 assays; also called ^18F-FB-BBN-RGD

- IC50 [4]: 55.9 nM
- IC50 [6]: 92.8 nM
B5: NOTA-RGD-BBN (VII) (peptide)
peptide 1: RGDYK
peptide 2: EQWAVGHLM
modifications: NOTA (from p-SCN-Bn-NOTA, SCN-amine reaction) on the amine of RGD-BBN; Aca between Glu and Gln; C-terminal amide (Met-NH2); cyclic (cyclo); D-Tyr at position 4; Lys side chain joined to the Glu …
notes: also called NOTA-RGD-bombesin; ^64Cu-NOTA-RGD-BBN

- IC50 [4]: 85.5 nM
B6: PEG3-Glu-RGD-BBN (peptide)
peptide 1: RGDYK
peptide 2: EQWAVGHLM
modifications: not fully specified; PEG3 (11-amino-3,6,9-trioxaundecanoic acid) on the Glu amino group; Glu γ-carboxylate joined to Aca; Aca between Glu and Gln; C-terminal amide (Met-NH2); cyclic (cyclo); D-Tyr at position 4; Lys side chain ε-amine joined to the α-carboxylate of Glu
notes: also called PEG3-RGD-BBN

- IC50 [7]: 85.8 nM
- IC50 (integrin αvβ3 [8]): 21.6 nM
B7: DOTA-RGD-BBN (VIII) (peptide)
peptide 1: RGDYK
peptide 2: EQWAVGHLM
modifications: not fully specified; DOTA (from DOTA-OSSu) on the amine of RGD-bombesin; Aca between Glu and Gln; C-terminal amide (Met-NH2); cyclic (cyclo); D-Tyr at position 4; Lys side chain joined to the Glu linker
notes: also called DOTA-RGD-bombesin; ^64Cu-DOTA-RGD-BBN
